The data set can be described thus: soluble on expression in E. coli; label from the status in PepcDB or PDB records.
For “TAGFSLNVLTINTHKGFTAFNRRFILPELRDAVRSVSADIVCLQEVMGAHEVHPLHIENWPDTTHYEFLADTMWSDYAYGRNAVYPEGHHGNAVLSRFPIEYYENRDISVGNGEKRGLLYCRIVPPRSGITIHVICVHLGLRADQRQAQLTMLAEWVNTLPAGEPVVVAGDFNDWRQQANQPLKAQAGLEEIFTRARGRPARTFPVSFPLLRLDRIYVKNAHASRPKALALKQWRHLSDHAPLSVEIHL”, the “soluble on expression in E. coli” value was “not soluble”.
On to “TAPTLAEEVKQQSDGSVIIEGSANLRDLNKLFNWHLPINEVRTFNGLILEHLEKIPIEGTQFRLNQLNITVLEVADNMVKKVKVELIE”, for which the “soluble on expression in E. coli” value is “soluble”.
Then “TAYLGPAGSWTHQACLDLYGADGLVPLSREALFAAYADGKVERACVPVATSVVGLTPYMEDVLALPRVVVVAEYPKMLGYSLLARPGTRREDIKEVHAHPVAFEEVRPWLEREMPGARRVPAASGGAAAQAVAASATQDKASFGPRVGASVYQLVSLADGIEEGPHNVTRWWVLGRDMP”, with “not soluble”.
Then “TDLSQRPRRLRKSPALRAMFEETTLSLNDLVLPIFVEEEIDDYKAVEAMPGVMRIPEKHLAREIERIANAGIRSVMTFGISHHTDETGSDAWREDGLVARMSRICKQTVPEMIVMSDTCFCEYTSHGHCGVLKEHGVDNDATLENLGKQAVVAAAAGADFIAPSAAMDGQVQAIRQALDAAGFKDTAIMSYSTKFASSFYGPFREAAGSALKGDRKSYQMNPMNRREAIRESLLDEAQGADCLMVKPAGAYLDIVRELRERTELPIGAYQVSGEYAMIKFAALAGAIDEEKVVLESLGSIKRAGADLIFSYFALDLAEKKILR”, with “soluble”; and “TEERLKEIEAKYDEIAKDWPKKVKHVLHEEHELELTRVQVYTCDKCEEEGTIWSYHCDECDFDLHAKCALNEDTKE”, with “soluble”.
For the sequence “TEKARDLFDKLMTQIQLDDTAKEHPLIQNGRIDKVIVHQQSRLWEFHLSFDELMPVMLYQTFMQQLELAFQQIAQVSVQITTNQTTFTEEQLTDYWQLALLNSQCNTPLVQKVLKTQTPQFEDRKIILPVDNEAVIPYLKQQYLPIIEELYFSYGF”, the “soluble on expression in E. coli” value is “not soluble”.
Consider “TEKKYIVALDQGTTSSRAVVMDHDANIISVSQREFEQIYPKPGWVEHDPMEIWATQSSTLVEVLAKADISSDQIAAIGITNQRETTIVWEKETGKPIYNAIVWQCRRTAEICEHLKRDGLEDYIRSNTGLVIDPYFSGTKVKWILDHVEGSRERARRGELLFGTVDTWLIWKMTQGRVHVTDYTNASRTMLFNIHTLDWDDKMLEVLDIPREMLPEVRRSSEVYGQTNIDGKGGTRIPISGIAGDQQAALFGQLCVKEGMAKNTYGTGCFMLMNTGEKAVKSENGLLTTIACGPTGEVNYALEGAVFMAGASIQWLRDEMKLINDAYDSEYFATKVQNTNGVYVVPAFTGLGAPYWDPYARGAIFGLTRGVNANHIIRATLESIAYQTRDVLEAMQADSGIRLHALRVDGGAVANNFLMQFQSDILGTRVERPEVREVTALGAAYLAGLAVGFWQNLDELQEKAVIEREFRPGIETTERNYRYAGWKKAVKRAMAWEEHDQLYTRASQPELAPEDPEDLEHHHHHH”, for which the “soluble on expression in E. coli” value is given as “soluble”.
The same measure for “TFKHSRDILGRTFDILVIDLSYDYSPNDLGRIIETVRGGGLIFVLTNPFEKWKDMWTGFHKSLVTPPYTIEDVKKRFNRRLIRKFTEHKGIYIVNTDRMSIERKPG”: “not soluble”; for “THCHLKNGEYHIDLIPQRLRGEIASFDIHVPETGELIVEQGRRITARHIKQMEKSQMQDLVVPRDYLIGKTLAKNIIDTSTGEFLAQANDEITEELLDAMANHG”: “not soluble”; for “THSEEEIKIIASESQKGGVLDEFETEIIRNAVDFSDTVAKEIMTPRKDMICLNKQKSYEENMQIICEHKHTRFPYIDGSKDTILGMIHIRDIIQNELNHKSQNLDTFVKPLILVPENISISKVLVMMNKERSHTALVVDEYGGTAGILTMEDIMEEIIGEIKSEHEEDSYKKLA”: “soluble”.
Consider “TILVAIANDSVSPAVIDTAVRLADGLDEELYVVHLVDENTADGTAMQLRDEMRDRFRDATVVATVAIEHVGRSAMRSGTRIGNELLELAADVDVQHIVMGHEPKGLAGRLREGDAAVAVIDAADVPVTIVPEG”, for which the “soluble on expression in E. coli” value is listed as “not soluble”.

Source of the values: the DeepSol protein solubility set.
